This series has as its target M.MpeI (called wild type) (Mycoplasma penetrans? (printed "M. …, UniProt Q8EVR5 1-395, Q68R;K71R;S295P)). Put plainly: EMSA; 80 uM SAM, 1 mM DTT, 10 mM MgCl2; non-covalent complex among the most abundant; EMSA: 10 mM Tris-HCl pH 7.9, 50 mM NaCl, 10 mM MgCl2, 1 mM DTT, 80 uM SAM, 37 C 1 h, 1 uM DNA, 0.5-4 uM protein; covalent SDS-PAGE: 10 mM Tris-HCl pH 7.9, 50 mM NaCl, 160 uM SAM or sinefungin, +/-10 mM DTT, 37 C. Particulars: protein: recombinant; tags: C-terminal LEHHHHHH; label: 5' Cy3 or 5' 32P on strand 2; blunt.

B1: 30-5mZ / 30-5mC-down (dsDNA)
DNA 1: CAGCATTATCACAGCGTTTACACAATAACC
DNA 2: GGTTATTGTGTAAACGCTGTGATAATGCTG
modifications: 5-methyl-2-pyrimidinone (5-methylzebularine) at position 15 of strand 1 (written C); 5mC at position 15 of strand 2
As for B1, the binding result is given as “binds”.

B2: 30-dhaC / 30-5mC-down (dsDNA)
DNA 1: CAGCATTATCACAGCGTTTACACAATAACC
DNA 2: GGTTATTGTGTAAACGCTGTGATAATGCTG
modifications: 5,6-dihydro-5-azacytosine at position 15 of strand 1 (written C); 5mC at position 15 of strand 2
In the case of B2, the binding result is listed as “binds”.

Values taken from paper PMC11347137, “Cytosine analogues as DNA methyltransferase substrates”.
